Here are results for 40 sequences from the supplement of paper PMC7877785.

± gives the uncertainty stated by the source.

The data set in a line: self-splicing fitness, log relative to wild type (ln ratio); higher = more splicing; Tetrahymena group I intron in knt gene, E. coli kanamycin selection, DiMSum; sequences stand for … in CUCUCU…GGAGGGAAAAGUUAUCAGGCAUGCACCUGGUAGCUAGUCUUUAAACCAAUAGAUUGCAUCGGUUUAAAAGGCAAGACCGUCAAAUUGCGGGAAAGGGGUCAACAGCCGUUCAGUACCAAGUCUCAGGGGAAACUUUGAGAUGGCCUUGCAAAGGGUAUGGUAAUAAGCUGACGGACAUGGUCCUAACCACGCAGCCAAGUCCUAAGUCAACAGAUCUUCUGUUGAUAUGGAUGCAGUUCACAGACUAAAUGUCGGUCGGGGAAGAUGUAUUCUUCUCAUAAGAUAUAGUCGGACCUCUCCUUAAUGGGAGCUAGCGGAUGAAGUGAUGCAACACUGGAGCCGCUGGGAACUAAUUUGUAUGCGAAAGUAUAUUGAUUAGUUUUGGAGUACUCGUGGUCG
The essentials: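 Pooled colonies went to amplicon sequencing on an Illumina HiSeq 2500 after six replicate transformations. The plates were LB agar with 100 μg/mL carbenicillin, 50 μM IPTG and 0.2% rhamnose, with or without 25 μg/mL kanamycin, incubated overnight at 37°C or 30°C. The E. coli BL21(DE3) library had all eight P1ex-region intron nucleotides randomised, the intron placed in the knt kanamycin-resistance gene on pET-22b(+). DiMSum fitness is the error-weighted combination of replicate fold changes, kanamycin against none, normalised to wild type.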

GCUAAGCAAUAUUACGACUC: the “self-splicing fitness (ln)” value reads like this: (30 °C) 0.21 ± 0.098; (37 °C) 0.379 ± 0.14.

As to AGGAAGCAAUAUUACGUGCA, the “self-splicing fitness (ln)” value (30 °C) was -1.12 ± 0.11 and the “self-splicing fitness (ln)” value (37 °C) is -1.32 ± 0.13.

With AUCCAGCAAUAUUACGACCG, the “self-splicing fitness (ln)” value runs as follows: (30 °C) -1.43 ± 0.084; (37 °C) -0.707 ± 0.12.

On to AAGUAGCAAUAUUACGAUCU, for which the “self-splicing fitness (ln)” value is, setting by setting: (30 °C) -0.032 ± 0.1; (37 °C) 0.3 ± 0.13.

As for AUGAAGCAAUAUUACGAAUC, the “self-splicing fitness (ln)” value (30 °C) was -1.68 ± 0.23.

Consider UCCAAGCAAUAUUACGGCGG, for which the “self-splicing fitness (ln)” value by setting is: (30 °C) -1.42 ± 0.079; (37 °C) -0.773 ± 0.092.

For the sequence CAUCAGCAAUAUUACGUACA, the “self-splicing fitness (ln)” value runs as follows: (30 °C) -2.24 ± 0.14; (37 °C) -1.92 ± 0.16.

On to AUGAAGCAAUAUUACGUUGU, for which the “self-splicing fitness (ln)” value runs as follows: (30 °C) -1.99 ± 0.12; (37 °C) -0.91 ± 0.12.

As for AUAGAGCAAUAUUACGUGAA, the “self-splicing fitness (ln)” value (37 °C) is -1.07 ± 0.25.

As to GGAGAGCAAUAUUACGGCCA, the “self-splicing fitness (ln)” value (30 °C) was -2.34 ± 0.36 and the “self-splicing fitness (ln)” value (37 °C) was -1.21 ± 0.35.

With UGGUAGCAAUAUUACGGGGU, the “self-splicing fitness (ln)” value (30 °C) was -3.24 ± 0.43.

With AGCUAGCAAUAUUACGAUGG, the “self-splicing fitness (ln)” value (30 °C) was -3.87 ± 0.27 and the “self-splicing fitness (ln)” value (37 °C) was -2.05 ± 0.28.

Take UUUAAGCAAUAUUACGGUUA: the “self-splicing fitness (ln)” value (30 °C) is -1.35 ± 0.12 and the “self-splicing fitness (ln)” value (37 °C) is -0.505 ± 0.1.

As to CACAAGCAAUAUUACGCAAC, the “self-splicing fitness (ln)” value reads like this: (30 °C) -3.27 ± 0.26; (37 °C) -2.27 ± 0.32.

Turning to CCUGAGCAAUAUUACGCCCA, the “self-splicing fitness (ln)” value is -3.82 ± 0.47 (30 °C) and -2.05 ± 0.34 (37 °C).

As for AAUGAGCAAUAUUACGUCUC, the “self-splicing fitness (ln)” value is, setting by setting: (30 °C) -2.96 ± 0.23; (37 °C) -2.19 ± 0.24.

As to UACCAGCAAUAUUACGUCCU, the “self-splicing fitness (ln)” value reads like this: (30 °C) -1.79 ± 0.1; (37 °C) -1.34 ± 0.14.

On to UGUAAGCAAUAUUACGAUCC, for which the “self-splicing fitness (ln)” value by setting is: (30 °C) -1.49 ± 0.34; (37 °C) -0.943 ± 0.42.

Consider UCCAAGCAAUAUUACGGAAC, for which, for the setting “37 °C”, the “self-splicing fitness (ln)” value is -3.52 ± 0.35.

As for AAGUAGCAAUAUUACGUCUC, the “self-splicing fitness (ln)” value was -1.59 ± 0.12 (30 °C) and -0.405 ± 0.14 (37 °C).

As to CUUGAGCAAUAUUACGUCAC, the “self-splicing fitness (ln)” value was -3.37 ± 0.23 (30 °C) and -2.73 ± 0.31 (37 °C).

For the sequence AUGGAGCAAUAUUACGGAUA, the “self-splicing fitness (ln)” value reads like this: (30 °C) -2.46 ± 0.17; (37 °C) -2.21 ± 0.28.

As to AUUGAGCAAUAUUACGCGGU, the “self-splicing fitness (ln)” value (30 °C) is -2.19 ± 0.19.

For the sequence CGGGAGCAAUAUUACGUAUG, the “self-splicing fitness (ln)” value (30 °C) is -3.99 ± 0.35.

GAUGAGCAAUAUUACGGACU: the “self-splicing fitness (ln)” value (30 °C) is -1.79 ± 0.25 and the “self-splicing fitness (ln)” value (37 °C) was -1.66 ± 0.38.

Consider ACCCAGCAAUAUUACGCGGU, for which the “self-splicing fitness (ln)” value by setting is: (30 °C) -3.41 ± 0.18; (37 °C) -3.42 ± 0.21.

For CACCAGCAAUAUUACGCUAA, the “self-splicing fitness (ln)” value reads like this: (30 °C) -2.78 ± 0.13; (37 °C) -2.33 ± 0.16.

For CGUCAGCAAUAUUACGUUGG, the “self-splicing fitness (ln)” value (30 °C) was -3.57 ± 0.11 and the “self-splicing fitness (ln)” value (37 °C) was -2.78 ± 0.16.

For AGAGAGCAAUAUUACGGAUU, the “self-splicing fitness (ln)” value was -2.87 ± 0.2 (30 °C) and -2.57 ± 0.34 (37 °C).

For UCUCAGCAAUAUUACGUGCC, the “self-splicing fitness (ln)” value runs as follows: (30 °C) -3.38 ± 0.26; (37 °C) -1.71 ± 0.23.

In the case of UUUAAGCAAUAUUACGUUUG, the “self-splicing fitness (ln)” value runs as follows: (30 °C) -2.96 ± 0.19; (37 °C) -1.42 ± 0.13.

For the sequence ACGGAGCAAUAUUACGUCGG, the “self-splicing fitness (ln)” value by setting is: (30 °C) -3.04 ± 0.31; (37 °C) -0.422 ± 0.23.

Take GAUAAGCAAUAUUACGUGUC: the “self-splicing fitness (ln)” value is, setting by setting: (30 °C) -2.29 ± 0.21; (37 °C) -2.5 ± 0.31.

In the case of CCUUAGCAAUAUUACGAUUC, the “self-splicing fitness (ln)” value was -3.68 ± 0.25 (30 °C) and -3.28 ± 0.47 (37 °C).

With CUAAAGCAAUAUUACGACUC, the “self-splicing fitness (ln)” value runs as follows: (30 °C) -4.65 ± 0.46; (37 °C) -2.38 ± 0.31.

Regarding GCCCAGCAAUAUUACGGCUG, the “self-splicing fitness (ln)” value (30 °C) was -4.14 ± 0.2 and the “self-splicing fitness (ln)” value (37 °C) is -2.22 ± 0.15.

For UUAGAGCAAUAUUACGUCGG, the “self-splicing fitness (ln)” value (30 °C) was -1.11 ± 0.12 and the “self-splicing fitness (ln)” value (37 °C) is -0.455 ± 0.14.

With GGGUAGCAAUAUUACGCUUG, the “self-splicing fitness (ln)” value reads like this: (30 °C) -0.33 ± 0.1; (37 °C) -0.241 ± 0.15.

For GCCAAGCAAUAUUACGCGCG, the “self-splicing fitness (ln)” value is -1.87 ± 0.13 (30 °C) and -0.932 ± 0.14 (37 °C).

Take CGGGAGCAAUAUUACGAUUG: the “self-splicing fitness (ln)” value (30 °C) is -2.22 ± 0.46 and the “self-splicing fitness (ln)” value (37 °C) is -1.72 ± 0.34.
